# Columns and labels:
# apc_human APC [1] = target: apc_human APC (UniProt P25054)
# apc_human APC [2] = target: apc_human APC (UniProt P25054); remark: listed apart in the source
# Cell division control protein 42 homolog (Homo sapiens), P60953 T17N, sequence (P60953 whole entry T17N): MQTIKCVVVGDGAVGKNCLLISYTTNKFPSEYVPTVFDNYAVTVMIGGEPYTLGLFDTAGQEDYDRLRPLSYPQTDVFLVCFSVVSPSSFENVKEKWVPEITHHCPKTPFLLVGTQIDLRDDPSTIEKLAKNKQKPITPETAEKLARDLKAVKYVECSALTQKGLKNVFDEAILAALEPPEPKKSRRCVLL
# apc_human APC, sequence (P25054 whole entry): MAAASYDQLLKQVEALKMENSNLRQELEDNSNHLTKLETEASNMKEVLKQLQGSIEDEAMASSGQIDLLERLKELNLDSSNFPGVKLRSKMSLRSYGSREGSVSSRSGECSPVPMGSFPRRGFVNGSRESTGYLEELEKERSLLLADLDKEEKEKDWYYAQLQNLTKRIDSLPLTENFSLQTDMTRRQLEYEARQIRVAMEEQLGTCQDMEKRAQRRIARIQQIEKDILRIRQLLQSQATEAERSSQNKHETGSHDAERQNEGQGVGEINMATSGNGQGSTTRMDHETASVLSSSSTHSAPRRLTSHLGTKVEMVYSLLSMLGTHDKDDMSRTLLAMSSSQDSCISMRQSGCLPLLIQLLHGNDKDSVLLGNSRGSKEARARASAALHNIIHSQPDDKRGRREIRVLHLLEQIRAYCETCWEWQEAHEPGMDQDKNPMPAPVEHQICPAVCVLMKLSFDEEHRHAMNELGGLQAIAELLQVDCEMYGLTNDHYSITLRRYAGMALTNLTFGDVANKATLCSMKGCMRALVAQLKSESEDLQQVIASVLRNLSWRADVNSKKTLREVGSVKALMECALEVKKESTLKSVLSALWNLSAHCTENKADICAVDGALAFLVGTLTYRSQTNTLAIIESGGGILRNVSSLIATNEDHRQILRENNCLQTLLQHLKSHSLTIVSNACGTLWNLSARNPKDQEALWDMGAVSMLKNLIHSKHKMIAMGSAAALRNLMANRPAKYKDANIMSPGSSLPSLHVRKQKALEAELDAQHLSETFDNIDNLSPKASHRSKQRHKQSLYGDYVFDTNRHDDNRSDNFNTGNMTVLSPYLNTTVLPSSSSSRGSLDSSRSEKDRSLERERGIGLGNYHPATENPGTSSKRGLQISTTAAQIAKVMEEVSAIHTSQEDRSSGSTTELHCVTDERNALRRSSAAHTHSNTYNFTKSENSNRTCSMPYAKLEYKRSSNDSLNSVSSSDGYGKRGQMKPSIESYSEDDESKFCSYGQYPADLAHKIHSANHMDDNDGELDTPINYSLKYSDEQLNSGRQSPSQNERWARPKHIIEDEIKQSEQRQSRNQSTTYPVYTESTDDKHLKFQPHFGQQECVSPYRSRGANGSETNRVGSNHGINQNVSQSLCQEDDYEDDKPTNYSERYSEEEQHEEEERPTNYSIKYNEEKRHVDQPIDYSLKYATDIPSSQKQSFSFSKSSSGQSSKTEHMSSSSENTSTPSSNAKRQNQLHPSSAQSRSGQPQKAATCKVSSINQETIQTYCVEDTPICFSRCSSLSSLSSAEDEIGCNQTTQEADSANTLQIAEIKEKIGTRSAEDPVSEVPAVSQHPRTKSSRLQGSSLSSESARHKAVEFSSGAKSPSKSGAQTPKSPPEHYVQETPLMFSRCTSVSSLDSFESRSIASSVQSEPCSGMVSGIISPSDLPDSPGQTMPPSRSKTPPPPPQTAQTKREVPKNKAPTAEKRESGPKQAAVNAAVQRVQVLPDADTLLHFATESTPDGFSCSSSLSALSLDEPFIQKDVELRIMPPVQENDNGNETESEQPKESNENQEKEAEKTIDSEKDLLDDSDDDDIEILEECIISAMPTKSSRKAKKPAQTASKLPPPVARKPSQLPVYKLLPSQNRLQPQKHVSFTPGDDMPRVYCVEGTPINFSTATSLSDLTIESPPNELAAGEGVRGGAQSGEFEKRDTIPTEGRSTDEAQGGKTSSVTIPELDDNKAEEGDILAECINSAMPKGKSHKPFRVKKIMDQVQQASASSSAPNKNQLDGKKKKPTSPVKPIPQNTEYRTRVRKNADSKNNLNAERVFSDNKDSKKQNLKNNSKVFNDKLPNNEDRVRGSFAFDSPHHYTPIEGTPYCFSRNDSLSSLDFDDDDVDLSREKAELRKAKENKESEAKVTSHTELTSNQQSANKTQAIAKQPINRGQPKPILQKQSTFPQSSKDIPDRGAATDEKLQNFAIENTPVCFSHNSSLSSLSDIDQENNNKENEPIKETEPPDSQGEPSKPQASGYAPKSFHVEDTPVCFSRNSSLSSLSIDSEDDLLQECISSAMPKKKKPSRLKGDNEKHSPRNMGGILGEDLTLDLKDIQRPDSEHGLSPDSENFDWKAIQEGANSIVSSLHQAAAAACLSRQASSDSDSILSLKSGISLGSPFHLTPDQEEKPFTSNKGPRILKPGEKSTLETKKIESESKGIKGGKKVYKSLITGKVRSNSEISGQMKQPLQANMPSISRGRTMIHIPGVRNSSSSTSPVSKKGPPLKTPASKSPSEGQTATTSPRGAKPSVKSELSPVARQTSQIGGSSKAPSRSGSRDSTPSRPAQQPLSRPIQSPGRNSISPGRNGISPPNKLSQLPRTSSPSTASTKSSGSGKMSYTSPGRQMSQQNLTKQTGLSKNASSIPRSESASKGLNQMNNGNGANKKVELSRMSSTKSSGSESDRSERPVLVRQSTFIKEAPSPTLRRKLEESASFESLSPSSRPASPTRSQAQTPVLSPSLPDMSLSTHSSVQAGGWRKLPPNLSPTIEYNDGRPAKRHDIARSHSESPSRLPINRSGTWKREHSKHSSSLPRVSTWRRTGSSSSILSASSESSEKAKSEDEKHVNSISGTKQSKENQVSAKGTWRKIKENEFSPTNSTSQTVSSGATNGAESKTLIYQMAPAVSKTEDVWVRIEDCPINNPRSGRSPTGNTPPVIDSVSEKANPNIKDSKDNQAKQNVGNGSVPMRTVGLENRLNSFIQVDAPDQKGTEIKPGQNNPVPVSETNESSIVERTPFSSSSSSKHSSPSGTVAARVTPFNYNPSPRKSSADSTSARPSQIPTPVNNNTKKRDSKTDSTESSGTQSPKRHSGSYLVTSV
substance,measurement,setting,value
"Cell division control protein 42 homolog (Homo sapiens), P60953 T17N",effect of a mutation on the interaction,apc_human APC [1],disrupting interaction strength
same,effect of a mutation on the interaction,apc_human APC [2],decreasing interaction strength

# From IntAct's records for PubMed 21311754
